# Experimental data: publication PMC4777398 (PLoS ONE, 2016)
# Molecular target: pre-dimerized IMPα2/IMPβ1 heterodimer (GST-fused mouse proteins) (mouse, UniProt P52293 1-529; P70168 1-876)
# Assay: AlphaScreen or HTRF
# Details: both partners purified
binder,measurement,value
His6-GFP-fused wt P-CTD (rabies virus P-protein C-terminal domain) (domain or fragment) VAQVAPGPPALEWSATNEEDDLSVEAEIAHQIAESFSKKYKFPSRSSGIFLYNFEQLKMNLDDIVKEAKNVPGVTRLAHDGSKIPLRCVLGWVALANSKKFQLLVEADKLSKIMQDDLNRYTSC,Kd,1.7 ± 0.6 nM
